B1: TPR t1 (parent)
chain: GACCAAUCUGCCCUCAGAGCUCGAGAACAUCUUCGGAUGCAGAGGAGGCAGGCUUCGGUGGCGCGAUAGCGCCAACGUCCUCAACCUCCAAUGCAUCCCACCACAUGAUGAUGCCUGAAGAGCCUUGGUUUUUUG

Variants of: B1
Assay: polymerase ribozyme fitness, log enrichment relative to wild type (log ratio); higher = more active; in vitro selection for triplet polymerase activity
Method in brief: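 Fitness measures genotype enrichment against wild-type enrichment on a logarithmic scale, with inverse-variance-weighted averaging of replicates. The logarithm is base 2, and genotypes were kept only with ≥10 input reads and ≥1 read per output in Illumina sequencing. The sequenced libraries came from one triplicate in vitro selection round, including frozen incubation at −7 °C, of PCR-built, transcribed mutant libraries of each subunit of a heterodimeric triplet polymerase ribozyme.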

Point of comparison: GACCAAUCUGCCCUCAGAGCUCGAGAACAUCUUCGGAUGGAGAGGAGGCAGGCUUCGGUGGAGCGAUAGCGCCAACGUCCUCAACCUCCAAUGCAUCCCACCACAUGAUGAUGCCUGAAGAGCAUUGGUUUUUUG [C40G C62A C124A], “polymerase ribozyme fitness (log ratio)” value -0.241. Against it:
- GACCAAUCUGCCCUCAGAGCUCGAGAACAUCUUCGGAUGGAGAGGAGGCAGGUUUCGGUGGCGCGAUAGCGCCAACGUCCUCAACCUCCAAUGGAUCCCACCACAUUAUGAUGCCUGAAGAGCUGUGGUUUUUUG [C40G C53U C94G G107U C124U U125G] — lower, -7.6
- GACCAAUCUGCCCUCAGAGCUCGAGAACAUCUUCGGAUGGAGAGGAGGCAGGCUUCGGUGGCGCGAUAGCGUCAACGUCCUCAACCUCCAAUGCAUCCCACCACAUGAUGAUGCCUGAAGAGCCUUCGUUUUUUG [C40G C72U G127C] — lower, -2.34
- GACCAAUCUGCCCUCAGAGCUCGAGAACAUCUUCGGAUGGAGAGGAGGCAGGCUUCGGUGGCGUGAUAGCGCCAACGUCCUCAAACUCCAAUGCAUCCCACCACAUGAUGACGCCUGAAGAGCCUUGGUUUUUUG [C40G C64U C85A U112C] — within 0.2 log units, -0.298
- GACCAAUCUGCCCUCAGAGCUCGAGAACAUCUUCGGAUGGAGAGGAGGCAGGCUUCGGUGGUGCGAUAGCGCCAACGUCCUCAACCUCCAAUGCAUCCCACCACAUGAUGAUGCCUGAAGAGCCUUGGUUUUUUG [C40G C62U] — lower, -1.8
- GACCAAUCUGCCCUCAGAGCUCGAGAACAUCUUCGGAUGGAGAGGUGGCAGGCUUCGGUGGCGCGAUAGCGCCAACGUCCUCAACCUCCAAUGCAUCCCACCACAUGAUGAUGCCUGAAGAGCCUUGGUUUUUUG [C40G A46U] — lower, -2.96
- GACCAAUCUGCCCUCAGAGCUCGAGAACAUCUUCGGAUGGAGAGGAGGCAGGCUUCGGUGGCGCGAUAGCGCCAACGUCCUCAACGUCCAAUGCAUCCCACCACAUGAUGAUGCCUGAAGAGCCUUGGUUUUUUG [C40G C86G] — lower, -2.86
- GACCAAUCUGCCCUCAGAGCUCGAGAACAUCUUCGGAUGGAGAGGGGGCAGGCUUCGGUGCCGCGAUAGCGCCAACGUCCUCAAUCUCCAAUGCAUCCCACCACAUGAUGAUGCCUGAAGAGCCUUGGUUUUUUG [C40G A46G G61C C85U] — lower, -6.04
- GACCAAUCUGCCCUCAGAGCUCGAGAACAUCUUCGGAUGGAGAGGAGGCAGGCUUCGGUGGCGCGAUAGCGCCAACGUCCUCAAACUCCAAUGCAUCCCACCACAUGAUGAUGCCUGAAGAGCCUUGGUUUUUUG [C40G C85A] — lower, -2.32
- GACCAAUCUGCCCUCAGAGCUCGAGAACAUCUUCGGAUGGAGAGGAGGCAGGCUUCGGUGGCGCGAUAGCGCCAACGUCCUCAACCUCCAAUGCAUCCCUACACAUGAUGAUGCCUGAAGAGCCUUGGUUUUUUG [C40G A100U C101A] — lower, -3.4
- GACCAAUCUGCCCUCAGAGCUCGAGAACAUCUUCGGAUGGAGAGGAGGCAGGCUUCGGUGGCGCGAUAGCGGCAACGUCCUCAACCUCCAAUGCAUCCCACCACAUGAUGAUGCCUGAAGAGCCUUGGUUUUUUG [C40G C72G] — lower, -1.56
- GACCAAUCUGCCCUCAGAGCUCGAGAACAUCUUCGGAUGGAGAGGAGGCAGGCUUCGGUGGCGCGAUAGCGCCAACGUCCUCAACCUCCAAUGCAUCCCACCAAAUGAUGAUGCCUGAAGAGCGUUGGUUUUUUG [C40G C104A C124G] — higher, 0.0636
- GACCAAUCUGCCCUCAGAGCUCGAGAACAUCUUCGGAUGGAGAGGAGGGAAGCUUCGGUGGCGCGAUAGCGCCAAUGUCCUCAACCUCCAAUGCAUCCCACCACAUGAUGAUGCCUGAAGAGCCUUGGUUUUUUG [C40G C49G G51A C76U] — lower, -4.64
- GACCAAUCUGCCCUCAGAGCUCGAGAACAUCUUCGGAUGGAGAGGAGGCUGGCUUCGGUGGCGCGAUAGCGCCAACGUCCUCAACCUCCAAUGCAUCCCACCACAUGAUGAUGCCUGAACAGCCUUGGUUUUUUG [C40G A50U G120C] — lower, -0.881
- GACCAAUCUGCCCUCAGAGCUCGAGAACAUCUUCGGAUGGAGAGGAGGCAGGCUUCGGUGGCGCGAUAGCGGCAACGUCCUCAACCUCCAAUGCAUCCCACCACAUGAUGAUGCGUGAAGAGGCUUGCUUUUUUG [C40G C72G C115G C123G G128C] — lower, -4.8
- GACCAAUCUGCCCUCAGAGCUCGAGAACAUCUUCGGAUGGAGUGGAGGCAGGCUUCGGAGGCGCGAUAGAGCCAACGUCCUCAACCUCCAAUGCAUCCCACCACAUGAUGAUGACUUAAGAGCCUUGGUUUUUUG [C40G A43U U59A C70A C114A G117U] — lower, -6.29
- GACCAAUCUGCCCUCAGAGCUCGAGAACAUCUUCGGAUGGAGAGGAGGCAGGCUUCGGUGGCGCGAUAGCGUCAACGCCCUCAACCUCCAAUGCAUCCCACCACAUGAUGAUGCCUGAAGAGCCUUGGUUUUUUG [C40G C72U U78C] — lower, -1.15
- GACCAAUCUGCCCUCAGAGCUCGAGAACAUCUUCGGAUGGAGUGGAGGCAGGCUUCGGUGGCGCGAUAGCGCAAACGUCCUCAACCUCCAAUGCAUCCCACCACAUGAUGAUGCCUGAAGAGCCUCGGUUUUUUG [C40G A43U C73A U126C] — lower, -3.57
- GACCAAUCUGCCCUCAGAGCUCGAGAACAUCUUCGGAUGGAGAGGAGGCAGGCUUCGGUGGUGCGAUAGCGCCAACGUCCUCAACCUCCAAUCCAUCCCACCACAUGAUGAUGCCUGAAGAGCCUUGUUUUUUUG [C40G C62U G93C G128U] — lower, -1.46
- GACCAAUCUGCCCUCAGAGCUCGAGAACAUCUUCGGAUGGAGAGGAGGCAGGCUUAUGUGGCGCGAUAGAGUCAACAUCCUCAACCUCCAAUGCAUCCCACCACAUGAUGAUGCCUGAAGAGCCUUGGUUUUUUG [C40G C56A G57U C70A C72U G77A] — lower, -4.22
- GACCAAUCUGCCCUCAGAGCUCGAGAACAUCUUCGGAUGGAGAGGAGGCAGGCUUGGGUGGCGCGAUAGCGCCAACGUCCUCAACCUCCAAUGCAUCCCACCACAUGAUGAUGCCUGAAGAACCUUGGUUUUUUG [C40G C56G G122A] — lower, -1.45

Source: the RNAGym collection of RNA variant scans (doi:10.1073/pnas.2313332121)
